Source: patent US6946258B2, “Rapid, immunochemical process for measuring thiopurine methyltransferase” (Biologix Diagnostics, LLC, priority 2002, dated 2005)
Residue numbers refer to the chain shown, from its start.

Legend:
hTPMT enzyme [1] = target: T1, hTPMT enzyme (Homo sapiens, UniProt P51580, Y240C); experiment: ELISA immunoassay for TPMT using purified anti-6-MMP IgG; assay type: biochemical; settings: TPMT + 100 μM SAM, 37° C., 30 minutes
T1 construct: DNA fragment; first 13 codons of LacZ (vector-encoded leader of pGEM-3Zf(+)) (N); made in house; host or cells: E. coli JM109 (pTPMT)
T1 sequence (P51580 1-245 Y240C): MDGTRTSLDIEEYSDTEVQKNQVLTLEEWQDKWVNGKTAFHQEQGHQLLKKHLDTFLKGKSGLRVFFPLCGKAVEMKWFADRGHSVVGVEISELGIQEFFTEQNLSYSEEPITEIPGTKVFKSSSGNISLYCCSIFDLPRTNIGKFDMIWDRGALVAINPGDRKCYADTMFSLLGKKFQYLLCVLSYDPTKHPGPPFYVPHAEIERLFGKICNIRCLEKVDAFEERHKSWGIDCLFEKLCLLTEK
Text: In order to determine whether TPMT enzyme could methylate 6-MP bound to BSA in reaction wells of a plastic ELISA plate, and if the anti-6-MMP antibody could detect the methylated 6-MMP reaction product, the following assay format was developed: [drawing 3] Schematic Representation of ELISA Assay for TPMT. Substrate BSA-6-mercaptopurine conjugate is coated onto the wells of plastic ELISA plates. In the presence of S-Adenosylmethionine (SAM), TPMT catalyses S-methylation of 6-MP to 6-methylmercaptopurine (6-MMP). Rabbit anti-6-MMP IgG binds to the covalently bound 6-MMP reaction product; and Protein A-Horseradish peroxidase (HRP) conjugate then binds to the rabbit IgG. Blue color develops in the presence of the HRP substrate, Tetramethylbenzidine. After acidification, the color changes to yellow; and the optical density at 450 nm is directly proportional to the amount of 6-MMP produced by enzyme-catalyzed TPMT methylation.
The wells of ‘Immulon B’ ELISA strips were coated with various concentrations of BSA-6MP conjugate and blocked as described above. After blocking solution was removed, the wells received 100 μl of Methylation Reaction Mix consisting of 1 mM Potassium Phosphate, 30 mM Tris-HCl, pH 8.0, lmM EDTA, 100 μM SAM and 1-4 μl of TPMT enzyme (˜6 units/μl). As a control, the wells received 100 μl of same reaction mix except no Mtase enzyme.
The wells were incubated at 37° C. for 30 minutes and were developed as described before. Absorbance was read on an Opsys MR ELISA plate reader (Dynex) at 450 nm. In this ELISA assay format, TPMT enzyme activity is detected as the amount of 6-MMP formed in situ: substrate 6-mercaptopurine is covalently bound to BSA which coats the wells of the plastic ELISA plate. Since anti-6-MMP IgG binds specifically to the methylated reaction product, 6-MMP, it is possible to measure TPMT activity using horseradish peroxidase (HRP) labeled Protein A (or HRP-conjugated goat anti-rabbit IgG). […]

human TPMT = target: T2, human TPMT (Homo sapiens, UniProt P51580); settings: Deininger et al., 1994, Table 1; cited from earlier work
T2 sequence (P51580 1-245): T1 sequence (P51580 1-245 Y240C) with C240Y

[2] = Storage stability of recombinant TPMT; assay type: physicochemical; settings: storage of 2 and 5 months at −20° C.
Method: The optimal reaction temperature for the hTPMT enzyme is 37° C. […] The relatively high activity of TPMT at ambient temperature facilitates immunoassays using anti-6-MMP antibody. After a storage of 2 and 5 months at −20° C., no change in TPMT enzyme activity was observed.

hTPMT enzyme [3] = target: T1, hTPMT enzyme; experiment: Temperature optimum of recombinant TPMT; assay type: biochemical
Method: Thawed cells (˜15g) were sonicated in (20 mM Tris-Cl, pH 7.5, 1 mM EDTA, 50 mM KC1, 10 mM β-mercaptoethanol) and centrifuged (8000 g for 15 minutes). The supernatant was loaded onto a Q-Sepharose column (Pharmacia, Piscataway, N.J.). […] After a storage of 2 and 5 months at −20° C., no change in TPMT enzyme activity was observed.

Q: With “BSA:6-MP: 6-MP (TPMT substrate) linked to BSA by periodate oxidation chemistry; coated onto ELISA wells” as the molecule, how does the “Absorbance at 450 nm” value (hTPMT enzyme [1]; wells coated with BSA:6-MP 10 μg/ml) read?
A: 2.228

Q: And the “Absorbance at 450 nm” value (hTPMT enzyme [1]; wells coated with BSA:6-MP 100 μg/ml)?
A: 2.440

Q: And the “Absorbance at 450 nm” value (hTPMT enzyme [1]; wells coated with BSA:6-MP 1 mg/ml)?
A: 2.561

Q: Which “substrate quality for human TPMT” value (human TPMT) does the source give for `OC[C@H]1O[C@@H](n2cnc3c(S)ncnc32)[C@H](O)[C@@H]1O` [6-mercaptopurine riboside] here?
A: relatively good substrate

B1: hTPMT enzyme: Recombinant human thiopurine methyltransferase expressed in E.coli JM109 (pTPMT), partially purified (protein, UniProt P51580 1-245, looked up)
Thiopurine S-methyltransferase: T1 sequence (P51580 1-245 Y240C) with C240Y
modifications: recombinant, E. coli
notes: Recombinant human thiopurine methyltransferase expressed in E.coli JM109 (pTPMT), partially purified
Q: Which “change in TPMT enzyme activity after storage” value [2] does the source give for B1 here?
A: no change

Q: What about the optimal reaction temperature (hTPMT enzyme [3]) of the same molecule?
A: 37 °C

Q: And the “enzyme activity at 23° C. relative to the optimum” value (hTPMT enzyme [3]; 23° C.)?
A: nearly as active
